# From the supplement of paper PMC9170038
# Test system: MS2 coat protein
# Experiment: apparent KD of MS2 coat protein; designed switch direction (-1 OFF switch, 1 ON switch): -1; higher = weaker reporter binding
# Procedure, shortened: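 Stalled E. coli RNA polymerase transcribed designed RNA switches on Illumina chips, which were then titrated with SNAP-549-labelled MS2 coat protein, doubling from 0.7 or 1.5 nM to 3 µM. Steps lasted from 0.8–1.5 h at the lowest concentration to 10–20 min at the highest. The apparent KD is each design's median over clusters of curve-fitted normalised fluorescence.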
# [1] = input ligand: microRNA oligo, concentration not stated
# [2] = Eterna round: R95, input ligand: FMN 200 uM
# [3] = Eterna round: R95, input ligand: microRNA oligo, concentration not stated
# [4] = Eterna round: R95, input ligand: none
Sequence,apparent KD of MS2 coat protein (input ligand: FMN 200 uM) [µM],apparent KD of MS2 coat protein (input ligand: none) [µM],other results
"GUGUGUGAUGUAGGAUAUACGAGACAUGAGGAUCACCCAUGUGAGGGAAGGAGAAGGAGAAGAGAGUAGAAGGAUAGAGUGUGA [Default title] (Eterna round: R96, puzzle: Exclusion NG 2)",0.133,0.131,apparent KD of MS2 coat protein [1]: 0.144 µM
GUUAAACAUGAGGAUCACCCAUGUAAGGAUAUGCUGAGGUCGCGCUGACGUGAAUGAAGCAGAAGGUACAAAUG [Mat - Mod of JL D63] (puzzle: Exclusion 1),,,apparent KD of MS2 coat protein [2]: 0.0795 µM; apparent KD of MS2 coat protein [3]: 0.0767 µM; apparent KD of MS2 coat protein [4]: 0.0608 µM
GUUAAACAUGAGGAUCACCCAUGUAAGGAUAUGCUGCGGUCGCGAUGACGUGACUGCAGCAGAAGGUACAAAUG [Mat - Mod of JL D58] (puzzle: Exclusion 1),,,apparent KD of MS2 coat protein [3]: 0.0697 µM
"GUUAACGCAGGAUAUUAGUACUUUUACAUGAGGAUCACCCAUGUUAAUUGGGUCUAAGAAUAAGAAGGGCGAUGAA [JR_Ex5_Sub009] (Eterna round: R97, puzzle: Exclusion 5)",0.0483,0.0428,
GUUAAGGUAGGAUAUACGAUAAUAUAGGGUAGAAUUAUAACACAUGAGGAUCACCCAUGUAGAAGGACCAAUUG [Mat - Exclusion 2 - Mod of my Tesla design - D52] (puzzle: Exclusion 2),,,apparent KD of MS2 coat protein [3]: 0.0258 µM
GUUAGACAUGAGGAUCACCCAUGUGAGGAUAUGAUGCGAUCGUGAUGAAAUGAUCGCAUCAGAAGGCACAUAUG [Mat - Mod of JL D67] (puzzle: Exclusion 1),,,apparent KD of MS2 coat protein [3]: 0.123 µM
"GUUAUCGCAGGAUAUUAAUACUUGUACAUGAGGAUCACCCAUGUUUAUUGGGAUUAAGAAUAAGAAGGGCGAUGAA [JR_Ex5_Sub003] (Eterna round: R97, puzzle: Exclusion 5)",0.0528,0.0278,
"GUUAUCGCAGGAUAUUAGUACUUGUACAUGAGGAUCACCCAUGUUUAUUGGGUCUAAGAAUAAGAAGGGCGAUGAA [JR_Ex5_Sub005] (Eterna round: R97, puzzle: Exclusion 5)",0.105,0.032,
"GUUCGACAUGAGGAUCACCCAUGUGAGGAUAUACGAUUAGCUGCUAGGUAGUUAGUAUGUAGAAGGUGCGUGUA [EX1 #71] (Eterna round: R97, puzzle: Exclusion 1)",0.036,0.0343,
"GUUCUGACAGGAUAUACAUGAGGAUCACCCAUGUGCCCUUAGAGAUGCAAAGCAUCUUGUAGAAGGGUCUGAAC [Omei Ex3 Model Bachelor's Dilema v27] (Eterna round: R97, puzzle: Exclusion 3)",0.0421,0.0376,
"GUUGUGUAAGGAUAUGCCUGGCCGUGAGGCCAGAUUGAAUAGCAGAAGGUACAUGAGGAUCACCCAUGUACGGG [salish99_ex4_4_001] (Eterna round: R97, puzzle: Exclusion 4)",0.109,0.0227,
"GUUGUGUUAGGAUAUAACAACUACUAAUAAAUUAGUAGUUGUUAGAAGGAACAUGAGGAUCACCCAUGUAUGAC [-21.3, -20.2 kcal, A 36%] (Eterna round: R97, puzzle: Exclusion 4)",0.0525,0.0305,
"GUUGUUUAUGUAGGAUAUGCCUGGCGUGCCUUUGCAGAAGGACAUGAGGAUCACCCAUGUAUUGCGGUCUGCGUUCAGAUCGCC [salish99_ExNG1_r4_041] (Eterna round: R96, puzzle: Exclusion NG 1)",0.0331,0.0252,apparent KD of MS2 coat protein [1]: 0.0191 µM
"GUUGUUUAUGUAGGAUAUGCGAGGCGAGCCUAAGCAGAAGGACAUGAGGAUCACCCAUGUAUUGCGGUCUGCGUUCAGAUCGCU [salish99_ExNG1_r4_016] (Eterna round: R96, puzzle: Exclusion NG 1)",0.183,0.0269,apparent KD of MS2 coat protein [1]: 0.0192 µM
"GUUUAGUGAGGAUAUGUGGCUUCGAUCGUGAGAUCGAGGCUACAGAAGGCACAUGAGGAUCACCCAUGUUCCUC [salish99_ex4_r4_104] (Eterna round: R97, puzzle: Exclusion 4)",0.516,0.0389,
"GUUUUACAUGAGGAUCACCCAUGUGAGGAUAUGUUAUUAAUAGCGAUAGUUAUUGGUGGCAGAAGGCGCGUGAU [JR_Exc1_Sub011] (Eterna round: R97, puzzle: Exclusion 1)",0.343,0.0826,

Sequence,apparent KD of MS2 coat protein (input ligand: FMN 200 uM) [µM],apparent KD of MS2 coat protein (input ligand: none) [µM],other results
UAAAAGCGAGGAUAUACAUGAGGAUCACCCAUGUGAGGCGAAACGCCUCGGGCCAUCAGUAGAAGGUGCAAAAC [Veorgebe] (puzzle: Exclusion 3),,,apparent KD of MS2 coat protein [3]: 0.0707 µM
"UAAAAGCUAGGAUAUACAUGAGGAUCACCCAUGUAUUAGGGCAUGAAAUCGGUCCCACGUAGAAGGAGCGACAC [Dilaxeed] (Eterna round: R97, puzzle: Exclusion 3)",0.105,0.0245,
UAAAAGCUAGGAUAUACAUGAGGAUCACCCAUGUCACGGGUCCACUCAUCCUAUACGUGUAGAAGGAGCGACCC [Ceriza] (puzzle: Exclusion 3),,,apparent KD of MS2 coat protein [3]: 0.02 µM
"UAAAAGGCAGGAUAUGCAGAAAAGGAAACUUUUCAAGAAUGACAUGAGGAUCACCCAUGUAGAAGGGCCUUUUA [Alacar Attempt 3] (Eterna round: R97, puzzle: Exclusion 2)",0.0155,0.0162,
UAAAAUAGUGUGAGGAUAUGCUGGUCCUUGGAUCAGCAGAAGGCACAUGAGGAUCACCCAUGUAGUUAAUUUUA [Mat - Exclusion 4 - JL Mod - D23] (puzzle: Brourd's mod of Exclusion 4),,,apparent KD of MS2 coat protein [3]: 0.0308 µM
"UAAACAAGCUAAAGAUCCUACAUGAGGAUCACCCAUGUGCUCGUCUUAUAAGGUACUGUGACGAAAGUCACGGUACC [JL TOV1 3.00] (Eterna round: R97, puzzle: Sensor, turn-off variant 1)",0.488,0.663,
"UAAAGUAUAUAGGAUAUCUAGCUGGUAACAGCUAGAGAAGGAUGUACAUGAGGAUCACCCAUGUAGAUCUCAAA [Ex6/15-A3] (Eterna round: R97, puzzle: Exclusion 6)",0.0193,0.0128,
"UAAAUGUGAGGAUAUUCGAUGAACACGGAGACGUGUUUAUCGGAGAAGGCACAUGAGGAUCACCCAUGUUCCUU [Mat - Exclusion 4 - JL Mod - D5] (Eterna round: R97, puzzle: Exclusion 4)",0.216,0.0247,
"UAACAAAACUGAGGAUAUCCAUAGCAAAACGUUUGAUCCUCUACAUGAGGAUCACCCAUGUAGCAGGAGAAGGCAGAAACAAAG [Orraenso] (Eterna round: R96, puzzle: Exclusion NG 2)",0.0283,0.0216,apparent KD of MS2 coat protein [1]: 0.0901 µM
"UAACAAGCUUUAAGAUCCUACAUGAGGAUCACCCAUGUGCUCGUCUUGUAACGUACUGUGACGAAAGUCACGGUACG [JL TOV1 3.16] (Eterna round: R97, puzzle: Sensor, turn-off variant 1)",0.236,0.231,
UAACAGCGAGGAUAUACAUGAGGAUCACCCAUGUACGGGUCCGGGUUUUCGUCCAAAAGUAGAAGGCGCAAUAA [Laongeedte] (puzzle: Exclusion 3),,,apparent KD of MS2 coat protein [2]: 0.177 µM; apparent KD of MS2 coat protein [3]: 0.0384 µM; apparent KD of MS2 coat protein [4]: 0.0414 µM
"UAACUUUUAGUAAGGAUAUCGGUCCCAAGGGACAACGAGAAGGUACAUGAGGAUCACCCAUGUGAAAUAAGAAU [Mod of Zala 3 - Jieux - Brourd's Mod of Exclusion 4] (Eterna round: R97, puzzle: Brourd's mod of Exclusion 4)",0.0454,0.0211,
"UAAGAUUACCGAGGAUAUGGUAGUACAUAUUAACCAGAAGGCGGACUCAACAUGAGGAUCACCCAUGUAUAAAGGGUAUUAGGU [JR_ExcNG1_Sub042] (Eterna round: R96, puzzle: Exclusion NG 1)",0.0847,0.0603,apparent KD of MS2 coat protein [1]: 0.0603 µM
"UAAGUUUUGGUAGGAUAUACUUUAAAUUUCUCUAUCCAUACAUGAGGAUCACCCAUGUUUACAUUGUAGAAGGACCACUAUGUU [JR_ExcNG2_Sub056] (Eterna round: R96, puzzle: Exclusion NG 2)",,,apparent KD of MS2 coat protein [1]: 0.0187 µM
"UAAUAUCUGCAGGAUAUCGGUGGAGCACACGUAUGAGAAGGGCAGACAUGAGGAUCACCCAUGUAUAGGGUCCG [BotMod 3 - Jieux - Exclusion 6] (Eterna round: R97, puzzle: Exclusion 6)",0.136,0.0377,
"UAAUGUAUAUAGGAUAUCUAGCUGGUAACAGCUAGAGAAGGAUGUACAUGAGGAUCACCCAUGUAAAUCUCAAU [Ex6/12-B2] (Eterna round: R97, puzzle: Exclusion 6)",0.0325,0.0209,
